Experimental data reported in patent US20190263863A1 (GENOIMMUNE THERAPEUTICS, published 2019).

Biological target: T1, HLA-A0201 on the surface of T2 cells (human)
T1 construct: surface HLA-A*02:01 is detected with an anti-HLA-A*02:01 FITC monoclonal antibody after loading with peptide
Test: T2 cell peptide loading assay, 100 uM peptide, anti-HLA-A*02:01 FITC, flow cytometry
Protocol: After centrifugation at 200 g for 5 minutes for cell collection, the collected cells were washed with phosphate buffer saline (PBS) buffer twice, before incubated with anti-HLA-A*02:01 FITC monoclonal antibody at 4° C. for 30 minutes. The mean fluorescence intensity of cells was then detected and analyzed by the flow cytometry (BD FACSJazz™) and its software.

Binder	FI (fluorescence index)	Mean fluorescence intensity
FLLGNLSFV (Made by solid phase peptide synthesis, HPLC purity >90%) [wild-type polypeptide FLLGNLSFV (SEQ ID NO:5)]	2.27	724
FLLGNLFFV (Made by solid phase peptide synthesis, HPLC purity >90%; also called OR4K5 S67F mutant polypeptide) [mutant polypeptide FLLGNLFFV (SEQ ID NO:1)]	2.22	713
FLLGNLFFL (Made by solid phase peptide synthesis, HPLC purity >90%) [mutant polypeptide's variant FLLGNLFFL (SEQ ID NO:2)]	2.17	702
FMLGNLFFL (Made by solid phase peptide synthesis, HPLC purity >90%) [mutant polypeptide's variant FMLGNLFFL (SEQ ID NO:4)]	2.1	686
FMLGNLFFV (Made by solid phase peptide synthesis, HPLC purity >90%) [mutant polypeptide's variant FMLGNLFFV (SEQ ID NO:3)]	2.13	694
